This is an account of results in PMC4713135.

This assay concerns the target EGFP-Rab5 (wild type) (UniProt P20339). Briefly: FRET or BRET. Background: BRET reads energy transfer from a luciferase to a nearby fluorophore.
Chain of UniProt P20339 (P20339 whole entry): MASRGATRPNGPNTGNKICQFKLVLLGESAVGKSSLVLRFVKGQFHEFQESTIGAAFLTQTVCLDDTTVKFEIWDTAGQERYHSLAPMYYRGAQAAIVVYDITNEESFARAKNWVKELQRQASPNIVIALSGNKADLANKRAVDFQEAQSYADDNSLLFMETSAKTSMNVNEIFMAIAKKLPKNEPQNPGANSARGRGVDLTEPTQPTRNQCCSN

B1: mRFP-DRG2 (human DRG2) (natural protein)
chain: MGILEKISEIEKEIARTQKNKATEYHLGLLKAKLAKYRAQLLEPSKSASSKGEGFDVMKSGDARVALIGFPSVGKSTFLSLMTSTASEAASYEFTTLTCIPGVIEYKGANIQLLDLPGIIEGAAQGKGRGRQVIAVARTADVIIMMLDATKGEVQRSLLEKELESVGIRLNKHKPNIYFKPKKGGGISFNSTVTLTQCSEKLVQLILHEYKIFNAEVLFREDCSPDEFIDVIVGNRVYMPCLYVYNKIDQISMEEVDRLARKPNSVVISCGMKLNLDYLLEMLWEYLALTCIYTKKRGQRPDFTDAIILRKGASVEHVCHRIHRSLASQFKYALVWGTSTKYSPQRVGLTHTMEHEDVIQIVKK
For the molecule B1, the FRET efficiency was determined as 10%.
